Measured values as given in publication PMC8682777, “Mechanisms of distinctive mismatch tolerance between Rad51 and Dmc1 in homologous recombination” (Nucleic Acids Research, 2021).

Columns and labels:
[1] = target: the molecule itself; assay: cryo-EM structure; helical filaments of 2 uM hRAD51 on 150-mer ssDNA with 2 uM RS-1 (presynaptic, wt only) or after strand exchange with dsDNA and 0.2 uM Hop2-Mnd1 without RS-1 (postsynaptic, wt and 273-PG-274); 25 mM HEPES pH 7.5, 25 mM KCl, 4 mM MgCl2, 4 mM AMP-PNP, 37°C
[2] = target: the molecule itself; assay: cryo-EM structure; helical filaments of 4 uM ScDmc1 on 150-mer ssDNA (presynaptic) or after strand exchange with 150-bp dsDNA and 0.4 uM Hop2-Mnd1 (postsynaptic); 35 mM Tris-HCl pH 7.5, 96 mM KCl, 2 mM ATP, 5 mM CaCl2, 1 mM DTT, 37°C
[3] = target: T1, hRAD51 wt (Homo sapiens (human), UniProt Q06609 1-339); assay: cryo-EM; 4 mM AMP-PNP, 4 mM Mg2+, RS-1; presynaptic complex; hRAD51: 25 mM HEPES pH 7.5, 25 mM KCl, 4 mM MgCl2, 4 mM AMP-PNP, 37 C; ScDmc1: 35 mM Tris-HCl pH 7.5, 96 mM KCl, 2 mM ATP, 5 mM CaCl2, 1 mM DTT, 37 C. Strand-exchange/smFRET activity assays and MM-GBSA energies not listed.; details: protein: recombinant; chain copies: 10
[4] = target: T2, ScDmc1 wt (UniProt P25453 1-334); assay: cryo-EM; 2 mM ATP, 5 mM Ca2+; presynaptic complex; hRAD51: 25 mM HEPES pH 7.5, 25 mM KCl, 4 mM MgCl2, 4 mM AMP-PNP, 37 C; ScDmc1: 35 mM Tris-HCl pH 7.5, 96 mM KCl, 2 mM ATP, 5 mM CaCl2, 1 mM DTT, 37 C. Strand-exchange/smFRET activity assays and MM-GBSA energies not listed.; details: protein: recombinant; tags: His6
T2 sequence: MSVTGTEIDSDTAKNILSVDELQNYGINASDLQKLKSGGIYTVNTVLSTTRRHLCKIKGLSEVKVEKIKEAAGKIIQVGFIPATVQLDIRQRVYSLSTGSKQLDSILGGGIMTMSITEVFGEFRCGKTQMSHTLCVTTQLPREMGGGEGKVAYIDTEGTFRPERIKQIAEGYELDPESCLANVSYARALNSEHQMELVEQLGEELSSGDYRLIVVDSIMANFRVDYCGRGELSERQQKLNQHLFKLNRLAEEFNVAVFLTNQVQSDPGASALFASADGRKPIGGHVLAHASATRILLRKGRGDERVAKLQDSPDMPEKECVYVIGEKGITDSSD

[5] = target: hRAD51 273-PG-274 (Homo sapiens (human), UniProt Q06609 1-339, V273P;D274G); assay: cryo-EM; AMP-PNP, Mg2+, Hop2-Mnd1 added, no RS-1; postsynaptic complex; hRAD51: 25 mM HEPES pH 7.5, 25 mM KCl, 4 mM MgCl2, 4 mM AMP-PNP, 37 C; ScDmc1: 35 mM Tris-HCl pH 7.5, 96 mM KCl, 2 mM ATP, 5 mM CaCl2, 1 mM DTT, 37 C. Strand-exchange/smFRET activity assays and MM-GBSA energies not listed.; details: protein: recombinant; chain copies: 16; blunt
[6] = target: T2, ScDmc1 wt; assay: cryo-EM; 2 mM ATP, 5 mM Ca2+, Hop2-Mnd1 added; postsynaptic complex; hRAD51: 25 mM HEPES pH 7.5, 25 mM KCl, 4 mM MgCl2, 4 mM AMP-PNP, 37 C; ScDmc1: 35 mM Tris-HCl pH 7.5, 96 mM KCl, 2 mM ATP, 5 mM CaCl2, 1 mM DTT, 37 C. Strand-exchange/smFRET activity assays and MM-GBSA energies not listed.; details: protein: recombinant; tags: His6; blunt
[7] = target: T1, hRAD51 wt; assay: cryo-EM; AMP-PNP, Mg2+, Hop2-Mnd1 added to trigger exchange, no RS-1; postsynaptic complex; hRAD51: 25 mM HEPES pH 7.5, 25 mM KCl, 4 mM MgCl2, 4 mM AMP-PNP, 37 C; ScDmc1: 35 mM Tris-HCl pH 7.5, 96 mM KCl, 2 mM ATP, 5 mM CaCl2, 1 mM DTT, 37 C. Strand-exchange/smFRET activity assays and MM-GBSA energies not listed.; details: protein: recombinant; chain copies: 16; blunt

B1: human RAD51 mutant 273-PG-274 (natural protein)
chain: MAMQMQLEANADTSVEEESFGPQPISRLEQCGINANDVKKLEEAGFHTVEAVAYAPKKELINIKGISEAKADKILAEAAKLVPMGFTTATEFHQRRSEIIQITTGSKELDKLLQGGIETGSITEMFGEFRTGKTQICHTLAVTCQLPIDRGGGEGKAMYIDTEGTFRPERLLAVAERYGLSGSDVLDNVAYARAFNTDHQTQLLYQASAMMVESRYALLIVDSATALYRTDYSGRGELSARQMHLARFLRMLLRLADEFGVAVVITNQVVAQPGGAAMFAADPKKPIGGNIIAHASTTRLYLRKGRGETRICKIYDSPCLPEAEAMFAINADGVGDAKD
notes: RAD51 recombinase, human, with V273 and D274 of Loop2 changed to P and G (the residues of hDMC1); made from the hRAD51 wt construct by point mutation; Stood as a helical filament on dsDNA (postsynaptic complex, without RS-1); Only an EM map is deposited (EMD-31155), no PDB model; also called PG mutant; source: E. coli BLR(DE3) plysS (RecA-deficient), purified as hRAD51 wt
binding result [1]: binds

B2: yeast Dmc1 wild type (natural protein)
chain: T2 sequence
notes: Dmc1 meiotic recombinase, yeast (ScDmc1); wt construct pNRB150, a gift from Dr Zhi Qi; Stood as a helical filament on ssDNA (presynaptic) or dsDNA (postsynaptic) with ATP-Ca2+; The stored protein is named His6-ScDmc1 and no cleavage of the tag is described; also called ScDmc1; ScDmc1 wt; source: E. coli BLR(DE3) plysS (RecA-deficient), purified (Talon beads, Heparin)
binding result [2]: binds

B3: 150-mer ssDNA oligo 4 (ssDNA)
DNA: TAAATAAGATAAGGATAATACAAAATAAGTAAATGAATAAACAGAGAAAATAAAGTAAAGGATATAAAAAATGAACATAAAGAATAAGTAAATGAATAAAACATAATAGGAATAAATATAGGAAATGAAATAAAAGAGACATAAATAAGA
binding result [3]: binds
binding result [4]: binds

B4: 150-bp homologous dsDNA oligo 4/oligo 5 (postsynaptic) (dsDNA)
DNA 1: B3 DNA
DNA 2: TCTTATTTATGTCTCTTTTATTTCATTTCCTATATTTATTCCTATTATGTTTTATTCATTTACTTATTCTTTATGTTCATTTTTTATATCCTTTACTTTATTTTCTCTGTTTATTCATTTACTTATTTTGTATTATCCTTATCTTATTTA
binding result [5]: binds
binding result [6]: binds
binding result [7]: binds
